Among the data in publication PMC4294473 are fold more seed needed than of TgP301S Tau aggregates for equivalent seeding and fold more seed needed than of TgP301S Tau seed for equivalent Sarkosyl-insoluble Tau values, retold here.

For this assay, the target named is recombinant human P301S 0N4R Tau (human). Kind of assay: co-sedimentation; cell seeding assay: HEK293T cells expressing P301S 1N4R Tau exposed 3 h to rising concentrations of heparin-assembled, sonicated recombinant Tau aggregates (Sarkosyl-insoluble), 3 days; Sarkosyl-insoluble pellet blotted with HT7.

A value given as a limit tells only on which side of the number the result lay.

Take “human P301S 1N4R Tau expressed in HEK293T cells (natural protein)”: the fold more seed needed than of TgP301S Tau aggregates for equivalent seeding was more than 10 fold and the fold more seed needed than of TgP301S Tau seed for equivalent Sarkosyl-insoluble Tau is 50 fold.
